We go through 83 variants from the RNAGym collection of RNA variant scans (doi:10.1093/molbev/msab373).

B1: Azoarcus group I ribozyme (parent)
chain: GUGCCUUGCGCCGGGAAACCACGCAAGGGAUGGUGUCAAAUUCGGCGAAACCUAAGCGCCCGCCCGGGCGUAUGGCAACGCCGAGCCAAGCUUCGGCGCCUGCGCCGAUGAAGGUGUAGAGACUAGACGGCACCCACCUAAGGCAAACGCUAUGGUGAAGGCAUAGUCCAGGGAGUGGCGAAAGUCACACAAACCGG

This data set covers variants of B1. In words: reverse-splicing fitness (ratio to wild type); higher = more active; in vitro selection; Mg2+ level not given. The method, boiled down:
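An in vitro group I ribozyme library with randomized positions was T7-transcribed and gel-purified. In triplicate, 10 pmol RNA in EPPS pH 7.5 was reacted with 50 pmoles of a 30-nt RNA substrate for 1 h at 37 °C across several added MgCl2 levels (1–48 mM), then stopped with EDTA. Products were reverse transcribed from a substrate-complementary primer, PCR-amplified and sequenced (HiSeq 4000). Fitness is a variant's read proportion after selection over that before, normalised to wild type.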
Take C82A A145G C150G C169G U176A: the reverse-splicing fitness amounted to 0.0112.
Consider C82A A145G C150G C169G U176C, for which the reverse-splicing fitness is 0.0134.
With C82A A145G C150G C169G U176G, the reverse-splicing fitness is 0.00659.
Take C82A A145U C150U U176C: the reverse-splicing fitness amounted to 0.324.
The figure for C82A A145U C150U U176G is 0.0823; for C82A A145U C150U U176A it is 0.273.
On to C82A A145U C150G C169G U176G, for which the reverse-splicing fitness is 0.0053.
C82A A145U C150G C169G U176C: the reverse-splicing fitness was 0.00607.
With C82A A145U C150G C169G U176A, the reverse-splicing fitness turned out to be 0.00926.
For C82A C150A C169G U176C, the reverse-splicing fitness is 0.0241.
For C82A C150A C169G U176G, the reverse-splicing fitness turned out to be 0.0072.
Take C82A C150A C169G U176A: the reverse-splicing fitness worked out at 0.0198.
With C82A A145U C150A C169G U176G, the reverse-splicing fitness stood at 0.0059.
In the case of C82A A145U C150A C169G U176A, the reverse-splicing fitness stood at 0.0139.
In the case of C82A A145U C150A C169G U176C, the reverse-splicing fitness stood at 0.0131.
The value for C82A A145G C169A was 0.0112; that for C82A A145G C169U was 0.0161.
In the case of C82A A145G C169G, the reverse-splicing fitness amounted to 0.0111.
On to C82A A145U C169G U176C, for which the reverse-splicing fitness was 0.0127.
On to C82A A145U C169G U176A, for which the reverse-splicing fitness worked out at 0.0105.
In the case of C82A A145U C169G U176G, the reverse-splicing fitness turned out to be 0.00461.
C82A A145G C150A C169A U176A: the reverse-splicing fitness was found to be 0.0195.
Take C82A A145G C150A C169A U176G: the reverse-splicing fitness is 0.00695.
For C82A A145G C150A C169A U176C, the reverse-splicing fitness worked out at 0.0221.
The figure for C82A C150G C169G U176C is 0.00553.
As for C82A C150G C169G U176A, the reverse-splicing fitness stood at 0.00711.
In the case of C82A C150G C169G U176G, the reverse-splicing fitness amounted to 0.00581.
C82A A145U C150A C169U: the reverse-splicing fitness was 0.00955.
With C82A A145U C150A C169G, the reverse-splicing fitness is 0.00813.
On to C82A A145U C150A C169A, for which the reverse-splicing fitness was 0.00847.
As for C82A A145G C150G U176A, the reverse-splicing fitness was 0.0291.
As for C82A A145G C150G U176G, the reverse-splicing fitness is 0.0113.
As for C82A A145G C150G U176C, the reverse-splicing fitness came out at 0.0513.
Regarding C82A A145C C169U, the reverse-splicing fitness came out at 0.0141.
On to C82A A145U C150A C169A U176G, for which the reverse-splicing fitness was determined as 0.0053.
As to C82A A145U C150A C169A U176A, the reverse-splicing fitness is 0.0129.
With C82A A145U C150A C169A U176C, the reverse-splicing fitness turned out to be 0.0105.
The figure for C82A A145G C150G C169U U176A is 0.0117.
The figure for C82A A145G C150G C169U U176C is 0.0136.
Consider C82A A145G C150G C169U U176G, for which the reverse-splicing fitness turned out to be 0.00762.
Consider C82A A145C C169U U176C, for which the reverse-splicing fitness is 0.0108.
The figure for C82A A145C C169U U176A is 0.0128.
For the variant C82A A145C C169U U176G, the reverse-splicing fitness is 0.00467.
C82A A145G C169G U176C: the reverse-splicing fitness amounted to 0.0324.
C82A A145G C169G U176A: the reverse-splicing fitness stood at 0.0218.
For C82A A145G C169G U176G, the reverse-splicing fitness came out at 0.00481.
For C82A A145U C150G C169U U176G, the reverse-splicing fitness worked out at 0.00595.
In the case of C82A A145U C150G C169U U176A, the reverse-splicing fitness worked out at 0.00877.
With C82A A145U C150G C169U U176C, the reverse-splicing fitness is 0.0116.
With C82A A145G C150G C169A U176C, the reverse-splicing fitness is 0.0124.
On to C82A A145G C150G C169A U176G, for which the reverse-splicing fitness is 0.00857.
For the variant C82A A145G C150G C169A U176A, the reverse-splicing fitness came to 0.015.
With C82A A145U C169A U176A, the reverse-splicing fitness was found to be 0.00948.
In the case of C82A A145U C169A U176G, the reverse-splicing fitness came to 0.00484.
In the case of C82A A145U C169A U176C, the reverse-splicing fitness was found to be 0.00899.
For C82A A145U C150U C169G U176C, the reverse-splicing fitness came out at 0.013.
In the case of C82A A145U C150U C169G U176G, the reverse-splicing fitness was found to be 0.00539.
As to C82A A145U C150U C169G U176A, the reverse-splicing fitness stood at 0.0124.
The value for C82A A145G C150A was 0.0995; that for C82A A145G C150G was 0.0693; that for C82A A145G C150U was 0.544.
The value for C82A A145U C150U C169U U176A was 0.0118.
As to C82A A145U C150U C169U U176G, the reverse-splicing fitness is 0.00508.
With C82A A145U C150U C169U U176C, the reverse-splicing fitness is 0.0131.
Turning to C82A A145G C150U C169U U176A, the reverse-splicing fitness was 0.0129.
Consider C82A A145G C150U C169U U176C, for which the reverse-splicing fitness is 0.0136.
With C82A A145G C150U C169U U176G, the reverse-splicing fitness was found to be 0.00555.
The value for C82A A145G C150U C169G U176G was 0.00547; that for C82A A145G C150U C169G U176A was 0.0138; that for C82A A145G C150U C169G U176C was 0.02.
With C82A C150G C169U, the reverse-splicing fitness came to 0.00995.
Regarding C82A C150G C169A, the reverse-splicing fitness was determined as 0.00934.
On to C82A C150G C169G, for which the reverse-splicing fitness is 0.00738.
The value for C82A A145U C150U C169A U176C was 0.00936; that for C82A A145U C150U C169A U176A was 0.0121.
For C82A A145U C150U C169A U176G, the reverse-splicing fitness stood at 0.00602.
On to C82A A145U C150G C169A U176G, for which the reverse-splicing fitness amounted to 0.00583.
C82A A145U C150G C169A U176C: the reverse-splicing fitness came out at 0.00974.
With C82A A145U C150G C169A U176A, the reverse-splicing fitness worked out at 0.0118.
Consider C82A C150G C169U U176G, for which the reverse-splicing fitness amounted to 0.00641.
For the variant C82A C150G C169U U176A, the reverse-splicing fitness amounted to 0.00724.
As for C82A C150G C169U U176C, the reverse-splicing fitness was found to be 0.0109.
In the case of C82A A145U C169U U176C, the reverse-splicing fitness is 0.0127.
